Laboratory results reported in article PMC10960309.

Columns and labels:
Assay in all cases: purified protein
Conditions in all cases: 50 mM sodium borate pH 9.5, 37°C, 1.9 mM OPA, 1 mM DTT, 5% DMSO
purified protein [1] = substrate: CCCCCCCCCCCC(=O)N[C@H]1CCOC1=O
purified protein [2] = substrate: CCCCCCCC(=O)N[C@H]1CCOC1=O
purified protein [3] = substrate: CCCCCCCCCC(=O)CC(=O)N[C@H]1CCOC1=O
purified protein [4] = substrate: CCCCCCCCCC(=O)N[C@H]1CCOC1=O

B1: PvdQ (Pseudomonas aeruginosa PAO1) (protein)
chain 1: DMPRPTGLAADIRWTAYGVPHIRAKDERGLGYGIGYAYARDNACLLAEEIVTARGERARYFGSEGKSSAELDNLPSDIFYAWLNQPEALQAFWQAQTPAVRQLLEGYAAGFNRFLREADGKTTSCLGQPWLRAIATDDLLRLTRRLLVEGGVGQFADALVAAAPPGAEKV
chain 2: SNAIAVGSERSADGKGMLLANPHFPWNGAMRFYQMHLTIPGRLDVMGASLPGLPVVNIGFSRHLAWTHTVDTSSHFTLYRLALDPKDPRRYLVDGRSLPLEEKSVAIEVRGADGKLSRVEHKVYQSIYGPLVVWPGKLDWNRSEAYALRDANLENTRVLQQWYSINQASDVADLRRRVEALQGIPWVNTLAADEQGNALYMNQSVVPYLKPELIPACAIPQLVAEGLPALQGQDSRCAWSRDPAAAQAGITPAAQLPVLLRRDFVQNSNDSAWLTNPASPLQGFSPLVSQEKPIGPRARYALSRLQGKQPLEAKTLEEMVTANHVFSADQVLPDLLRLCRDNQGEKSLARACAALAQWDRGANLDSGSGFVYFQRFMQRFAELDGAWKEPFDAQRPLDTPQGIALDRPQVATQVRQALADAAAEVEKSGIPDGARWGDLQVSTRGQERIAIPGGDGHFGVYNAIQSVRKGDHLEVVGGTSYIQLVTFPEEGPKARGLLAFSQSSDPRSPHYRDQTELFSRQQWQTLPFSDRQIDADPQLQRLSIRE
Purified protein [1]
  Km: 98.1 ± 34.1 µM
Purified protein [2]
  Km: (1.18 ± 0.34) × 10^2 μM
Purified protein [3]
  Km: (2.35 ± 0.07) × 10^2 μM
  kcat: 5.23 ± 0.55 s⁻¹
  kcat/Km: 22200 ± 4000 M⁻¹ s⁻¹
Purified protein [4]
  Km: (1.13 ± 0.42) × 10^2 μM
